The labels stand for the following.
B1: [Glu10,Nle17,Nle30]hPP2-36 (peptide)
peptide: PLEPVYPGENATPEQXAQYAADLRRYINXLTRPRY
modifications: norleucine (Nle) at positions 17 and 30, numbered on full-length hPP (SEQ ID No:3)
B2: [Nle17,Nle30]hPP2-36 (peptide)
peptide: B1 peptide with E9D
modifications: norleucine (Nle) at positions 17 and 30, numbered on full-length hPP (SEQ ID No:3)

Substitutions are numbered along the chain they refer to. Square brackets hold non-standard residues; d marks the D form. Ends that are not written are not given here. Nle = CCCC[C@H](N)C(=O)O

The experiment deals with human Y4 receptor (human, UniProt P50391 1-375). Put plainly: cell-based or functional assay.
Sequence of human Y4 receptor (P50391 whole entry): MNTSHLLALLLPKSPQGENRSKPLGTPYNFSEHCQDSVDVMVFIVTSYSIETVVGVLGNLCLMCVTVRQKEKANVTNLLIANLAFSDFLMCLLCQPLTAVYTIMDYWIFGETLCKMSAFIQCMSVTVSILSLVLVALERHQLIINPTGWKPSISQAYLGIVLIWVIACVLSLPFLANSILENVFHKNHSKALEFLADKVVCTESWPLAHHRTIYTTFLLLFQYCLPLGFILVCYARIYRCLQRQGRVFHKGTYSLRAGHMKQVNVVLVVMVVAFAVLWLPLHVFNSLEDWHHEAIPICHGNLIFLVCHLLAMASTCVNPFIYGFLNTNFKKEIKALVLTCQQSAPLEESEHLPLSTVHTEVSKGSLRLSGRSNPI
For the molecule LEPVYPGDNATPEQMAQYAADLRRYINALTRPRY (ends and bridges not checked) [[Ala30]hPP3-36], the “agonist potency (inositol phosphate turnover, transfected COS-7 cells): fold greater at Y4 than at Y1 receptor” value was not below 200 fold and the “agonist potency (inositol phosphate turnover, transfected COS-7 cells): fold greater at Y4 than at Y2 receptor” value was not below 1000 fold.

As to LEPVYPGDNATPEQMAQYAADLRRYINTLTRPRY (ends and bridges not checked) [[Thr30]hPP3-36], the “agonist potency (inositol phosphate turnover, transfected COS-7 cells): fold greater at Y4 than at Y1 receptor” value is not below 200 fold and the “agonist potency (inositol phosphate turnover, transfected COS-7 cells): fold greater at Y4 than at Y2 receptor” value was not below 1000 fold.

LEPVYPGDNATPEQLAQYAADLRRYINTLTRPRY (ends and bridges not checked) [[Leu17; Thr30]hPP3-36]: the “agonist potency (inositol phosphate turnover, transfected COS-7 cells): fold greater at Y4 than at Y1 receptor” value is not below 200 fold and the “agonist potency (inositol phosphate turnover, transfected COS-7 cells): fold greater at Y4 than at Y2 receptor” value was not below 1000 fold.

LEPVYPGDNATPEQMAQYAADLRRYINQLTRPRY (ends and bridges not checked) [[Gln30]hPP3-36]: the “agonist potency (inositol phosphate turnover, transfected COS-7 cells): fold greater at Y4 than at Y1 receptor” value is not below 200 fold and the “agonist potency (inositol phosphate turnover, transfected COS-7 cells): fold greater at Y4 than at Y2 receptor” value is not below 1000 fold.

For LEPVYPGDNATPEQMAQYAADLRRYINNLTRPRY (ends and bridges not checked) [[Asn30]hPP3-36], the “agonist potency (inositol phosphate turnover, transfected COS-7 cells): fold greater at Y4 than at Y1 receptor” value was not below 200 fold and the “agonist potency (inositol phosphate turnover, transfected COS-7 cells): fold greater at Y4 than at Y2 receptor” value was not below 1000 fold.

LEPVYPGENATPEQMAQYAADLRRYINMLTRPRY (ends and bridges not checked) [[Glu10]hPP3-36]: the “agonist potency (inositol phosphate turnover, transfected COS-7 cells): fold greater at Y4 than at Y1 receptor” value was not below 200 fold and the “agonist potency (inositol phosphate turnover, transfected COS-7 cells): fold greater at Y4 than at Y2 receptor” value is not below 1000 fold.

Turning to LEPVYPGENATPEQLAQYAADLRRYINTLTRPRY (ends and bridges not checked) [[Glu10,Leu17,Thr30]hPP3-36], the “agonist potency (inositol phosphate turnover, transfected COS-7 cells): fold greater at Y4 than at Y1 receptor” value was not below 200 fold and the “agonist potency (inositol phosphate turnover, transfected COS-7 cells): fold greater at Y4 than at Y2 receptor” value was not below 1000 fold.

Consider PLEPVYPGDNATPEQMAQYAADLRRYINMLTRPRY-NH2 [hPP2-36], for which the “agonist potency (inositol phosphate turnover, transfected COS-7 cells): fold greater at Y4 than at Y1 receptor” value is not below 200 fold and the “agonist potency (inositol phosphate turnover, transfected COS-7 cells): fold greater at Y4 than at Y2 receptor” value was not below 1000 fold.

Turning to LEPVYPGENATPEQ[Nle]AQYAADLRRYIN[Nle]LTRPRY (ends and bridges not checked) [[Glu10,Nle17,Nle30]hPP3-36], the “agonist potency (inositol phosphate turnover, transfected COS-7 cells): fold greater at Y4 than at Y1 receptor” value was not below 200 fold and the “agonist potency (inositol phosphate turnover, transfected COS-7 cells): fold greater at Y4 than at Y2 receptor” value was not below 1000 fold.

With LEPVYPGDNATPEQ[Nle]AQYAADLRRYIN[Nle]LTRPRY (ends and bridges not checked) [[Nle17,Nle30]hPP3-36], the “agonist potency (inositol phosphate turnover, transfected COS-7 cells): fold greater at Y4 than at Y1 receptor” value was not below 200 fold and the “agonist potency (inositol phosphate turnover, transfected COS-7 cells): fold greater at Y4 than at Y2 receptor” value is not below 1000 fold.

Turning to APLEPVYPGDNATPEQMAQYAADLRRYINALTRPRY (ends and bridges not checked) [[Ala30]hPP], the “agonist potency (inositol phosphate turnover, transfected COS-7 cells): fold greater at Y4 than at Y1 receptor” value was not below 200 fold and the “agonist potency (inositol phosphate turnover, transfected COS-7 cells): fold greater at Y4 than at Y2 receptor” value was not below 1000 fold.

Consider APLEPVYPGENATPEQXAQYAADLRRYINXLTRPRY (norleucine (Nle) at positions 17 and 30) [[Glu10,Nle17,Nle30]hPP], for which the “agonist potency (inositol phosphate turnover, transfected COS-7 cells): fold greater at Y4 than at Y1 receptor” value was not below 200 fold and the “agonist potency (inositol phosphate turnover, transfected COS-7 cells): fold greater at Y4 than at Y2 receptor” value is not below 1000 fold.

On to APLEPVYPGDNATPEQMAQYAADLRRYINNLTRPRY (ends and bridges not checked) [[Asn30]hPP], for which the “agonist potency (inositol phosphate turnover, transfected COS-7 cells): fold greater at Y4 than at Y1 receptor” value was not below 200 fold and the “agonist potency (inositol phosphate turnover, transfected COS-7 cells): fold greater at Y4 than at Y2 receptor” value was not below 1000 fold.

For APLEPVYPGENATPEQMAQYAADLRRYINMLTRPRY (ends and bridges not checked) [[Glu10]hPP], the “agonist potency (inositol phosphate turnover, transfected COS-7 cells): fold greater at Y4 than at Y1 receptor” value was not below 200 fold and the “agonist potency (inositol phosphate turnover, transfected COS-7 cells): fold greater at Y4 than at Y2 receptor” value is not below 1000 fold.

With APLEPVYPGDNATPEQLAQYAADLRRYINTLTRPRY (ends and bridges not checked) [[Leu17; Thr30]hPP], the “agonist potency (inositol phosphate turnover, transfected COS-7 cells): fold greater at Y4 than at Y1 receptor” value is not below 200 fold and the “agonist potency (inositol phosphate turnover, transfected COS-7 cells): fold greater at Y4 than at Y2 receptor” value is not below 1000 fold.

For the molecule APLEPVYPGDNATPEQMAQYAADLRRYINQLTRPRY (ends and bridges not checked) [[Gln30]hPP], the “agonist potency (inositol phosphate turnover, transfected COS-7 cells): fold greater at Y4 than at Y1 receptor” value is not below 200 fold and the “agonist potency (inositol phosphate turnover, transfected COS-7 cells): fold greater at Y4 than at Y2 receptor” value is not below 1000 fold.

Take APLEPVYPGDNATPEQXAQYAADLRRYINXLTRPRY (norleucine (Nle) at positions 17 and 30) [[Nle17,Nle30]hPP]: the “agonist potency (inositol phosphate turnover, transfected COS-7 cells): fold greater at Y4 than at Y1 receptor” value is not below 200 fold and the “agonist potency (inositol phosphate turnover, transfected COS-7 cells): fold greater at Y4 than at Y2 receptor” value is not below 1000 fold.

Regarding APLEPVYPGDNATPEQMAQYAADLRRYINTLTRPRY (ends and bridges not checked) [[Thr30]hPP], the “agonist potency (inositol phosphate turnover, transfected COS-7 cells): fold greater at Y4 than at Y1 receptor” value is not below 200 fold and the “agonist potency (inositol phosphate turnover, transfected COS-7 cells): fold greater at Y4 than at Y2 receptor” value was not below 1000 fold.

Take APLEPVYPGDNATPEQLAQYAADLRRYINSLTRPRY (ends and bridges not checked) [[Leu17; Ser30]hPP]: the “agonist potency (inositol phosphate turnover, transfected COS-7 cells): fold greater at Y4 than at Y1 receptor” value is not below 200 fold and the “agonist potency (inositol phosphate turnover, transfected COS-7 cells): fold greater at Y4 than at Y2 receptor” value is not below 1000 fold.

Regarding APLEPVYPGENATPEQLAQYAADLRRYINTLTRPRY (ends and bridges not checked) [[Glu10,Leu17,Thr30]hPP], the “agonist potency (inositol phosphate turnover, transfected COS-7 cells): fold greater at Y4 than at Y1 receptor” value is not below 200 fold and the “agonist potency (inositol phosphate turnover, transfected COS-7 cells): fold greater at Y4 than at Y2 receptor” value is not below 1000 fold.

LEPVYPGDNATPEQMAQYAADLRRYINMLTRPRY-NH2 [hPP3-36]: the “agonist potency (inositol phosphate turnover, transfected COS-7 cells): fold greater at Y4 than at Y1 receptor” value was not below 200 fold and the “agonist potency (inositol phosphate turnover, transfected COS-7 cells): fold greater at Y4 than at Y2 receptor” value was not below 1000 fold.

Consider PLEPVYPGDNATPEQMAQYAADLRRYINTLTRPRY (ends and bridges not checked) [[Thr30]hPP2-36], for which the “agonist potency (inositol phosphate turnover, transfected COS-7 cells): fold greater at Y4 than at Y1 receptor” value was not below 200 fold and the “agonist potency (inositol phosphate turnover, transfected COS-7 cells): fold greater at Y4 than at Y2 receptor” value was not below 1000 fold.

In the case of PLEPVYPGDNATPEQMAQYAADLRRYINNLTRPRY (ends and bridges not checked) [[Asn30]hPP2-36], the “agonist potency (inositol phosphate turnover, transfected COS-7 cells): fold greater at Y4 than at Y1 receptor” value was not below 200 fold and the “agonist potency (inositol phosphate turnover, transfected COS-7 cells): fold greater at Y4 than at Y2 receptor” value was not below 1000 fold.

As for B1, the “agonist potency (inositol phosphate turnover, transfected COS-7 cells): fold greater at Y4 than at Y1 receptor” value is not below 200 fold and the “agonist potency (inositol phosphate turnover, transfected COS-7 cells): fold greater at Y4 than at Y2 receptor” value was not below 1000 fold.

PLEPVYPGENATPEQMAQYAADLRRYINMLTRPRY (ends and bridges not checked) [[Glu10]hPP2-36]: the “agonist potency (inositol phosphate turnover, transfected COS-7 cells): fold greater at Y4 than at Y1 receptor” value is not below 200 fold and the “agonist potency (inositol phosphate turnover, transfected COS-7 cells): fold greater at Y4 than at Y2 receptor” value is not below 1000 fold.

As for PLEPVYPGDNATPEQLAQYAADLRRYINTLTRPRY (ends and bridges not checked) [[Leu17; Thr30]hPP2-36], the “agonist potency (inositol phosphate turnover, transfected COS-7 cells): fold greater at Y4 than at Y1 receptor” value was not below 200 fold and the “agonist potency (inositol phosphate turnover, transfected COS-7 cells): fold greater at Y4 than at Y2 receptor” value was not below 1000 fold.

For the molecule PLEPVYPGDNATPEQLAQYAADLRRYINSLTRPRY (ends and bridges not checked) [[Leu17; Ser30]hPP2-36], the “agonist potency (inositol phosphate turnover, transfected COS-7 cells): fold greater at Y4 than at Y1 receptor” value is not below 200 fold and the “agonist potency (inositol phosphate turnover, transfected COS-7 cells): fold greater at Y4 than at Y2 receptor” value is not below 1000 fold.

Consider PLEPVYPGDNATPEQMAQYAADLRRYINQLTRPRY (ends and bridges not checked) [[Gln30]hPP2-36], for which the “agonist potency (inositol phosphate turnover, transfected COS-7 cells): fold greater at Y4 than at Y1 receptor” value is not below 200 fold and the “agonist potency (inositol phosphate turnover, transfected COS-7 cells): fold greater at Y4 than at Y2 receptor” value is not below 1000 fold.

Turning to PLEPVYPGENATPEQLAQYAADLRRYINTLTRPRY (ends and bridges not checked) [[Glu10,Leu17,Thr30]hPP2-36], the “agonist potency (inositol phosphate turnover, transfected COS-7 cells): fold greater at Y4 than at Y1 receptor” value is not below 200 fold and the “agonist potency (inositol phosphate turnover, transfected COS-7 cells): fold greater at Y4 than at Y2 receptor” value is not below 1000 fold.

On to B2, for which the “agonist potency (inositol phosphate turnover, transfected COS-7 cells): fold greater at Y4 than at Y1 receptor” value was not below 200 fold and the “agonist potency (inositol phosphate turnover, transfected COS-7 cells): fold greater at Y4 than at Y2 receptor” value is not below 1000 fold.

The record behind these values is patent publication US20110251126A1, “INTESTINAL TREATMENT” (priority 2008, published 2011).
